Measurements from US20090214427.

What was measured:
[1] = molecular target: T1, synthetic peptide HK2p01 (SRFKVWWAAG)
T1 chain: SRFKVWWAAG

[2] = molecular target: T2, synthetic peptide HK2p02 (AARRPFPAPS)
T2 chain: AARRPFPAPS

[3] = molecular target: T3, synthetic peptide HK2p03 (PARRPFPVTA)
T3 chain: PARRPFPVTA

Measured: enzyme activity (chromogenic substrate)

B1: human trypsin 2 (protein)
chain: IVGGYICEENSVPYQVSLNSGYHFCGGSLISEQWVVSAGHCYKSRIQVRLGEHNIEVLEGNEQFINAAKIIRHPKYNSRTLDNDILLIKLSSPAVINSRVSAISLPTAPPAAGTESLISGWGNTLSSGADYPDELQCLDAPVLSQAECEASYPGKITNNMFCVGFLEGGKDSCQGDSGGPVVSNGELQGIVSWGYGCAQKNRPGVYTKVYNYVDWIKDTIAANS
showed no inhibition: all assays above

B2: human trypsin 3 (protein)
chain: IVGGYTCEENSLPYQVSLNSGSHFCGGSLISEQWVVSAAHCYKTRIQVRLGEHNIKVLEGNEQFINAAKIIRHPKYNRDTLDNDIMLIKLSSPAVINARVSTISLPTTPPAAGTECLISGWGNTLSFGADYPDELKCLDAPVLTQAECKASYPGKITNSMFCVGFLEGGKDSCQRDSGGPVVCNGQLQGVVSWGHGCAWKNRPGVYTKVYNYVDWIKDTIAANS
showed no inhibition: all assays above

B3: human plasmin (protein)
chain: KVYLSECKTGNGKNYRGTMSKTKNGITCQKWSSTSPHRPRFSPATHPSEGLEENYCRNPDNDPQGPWCYTTDPEKRYDYCDILECEEECMHCSGENYDGKISKTMSGLECQAWDSQSPHAHGYIPSKFPNKNLKKNYCRNPDRELRPWCFTTDPNKRWELCDIPRCTTPPPSSGPTYQCLKGTGENYRGNVAVTVSGHTCQHWSAQTPHTHNRTPENFPCKNLDENYCRNPDGKRAPWCHTTNSQVRWEYCKIPSCDSSPVSTEQLAPTAPPELTPVVQDCYHGDGQSYRGTSSTTTTGKKCQSWSSMTPHRHQKTPENYPNAGLTMNYCRNPDADKGPWCFTTDPSVRWEYCNLKKCSGTEASVVAPPPVVLLPDVETPSEEDCMFGNGKGYRGKRATTVTGTPCQDWAAQEPHRHSIFTPETNPRAGLEKNYCRNPDGDVGGPWCYTTNPRKLYDYCDVPQCAAPSFDCGKPQVEPKKCPGRVVGGCVAHPHSWPWQVSLRTRFGMHFCGGTLISPEWVLTAAHCLEKSPRPSSYKVILGAHQEVNLEPHVQEIEVSRLFLEPTRKDIALLKLSSPAVITDKVIPACLPSPNYVVADRTECFITGWGETQGTFGAGLLKEAQLPVIENKVCNRYEFLNGRVQSTELCAGHLAGGTDSCQGDSGGPLVCFEKDKYILQGVTSWGLGCARPNKPGVYVRVSRFVTWIEGVMRNN
showed no inhibition: all assays above
